Positions of bridges follow the written chain, without caps; N, C: chain ends. Non-standard residues stand in square brackets, D forms with d. Residues, ends and D or L forms follow the SMILES beside them. *: point of attachment. DOTA = O=C(O)CN1CCN(CC(=O)O)CCN(CC(=O)*)CCN(CC(=O)O)CC1; dPhe(4-NHCONH2) = NC(=O)Nc1ccc(C[C@@H](N)C(=O)O)cc1; Dihydroorotyl(S) = O=C1C[C@@H](C(=O)*)NC(=O)N1; Phe(4-Cl) = N[C@@H](Cc1ccc(Cl)cc1)C(=O)O; Phe(4-NH2) = Nc1ccc(C[C@H](N)C(=O)O)cc1
Assays:
[1] = human, in vivo; cited from earlier work
Method: The fast blood clearance of the OPS201 in the first phase (<56 h) for each species was in agreement with studies of the agonist. […] For humans, most likely because of the short observation period, the value was lower (0.5 h). For the late phase in pigs, our result (58 h) is also close to the results obtained in the human study with the agonist (43 h). Part of an ongoing phase 1 study with ^177Lu-OPS201 in patients with SSTR-posi ...

clinical = experiment: clinical; set-up: species or system patients (humans); conditions: both sexes, human, in vivo, total radioactivity
Method: (§1) For analyzing the biokinetics of ^177Lu-labeled peptides in preclinical and clinical studies, the data of ^177Lu-OPS201 athymic nude Foxn1nu mice (28 females, weight: 26 ± 1 g, age: 8–9 weeks), Danish Landrace pigs (3 females-1 male, weight: 28 ± 2 kg, age: 3 months), and patients (3 females-1 male, weight: 61 ± 17 kg, age: 44–77 years) with administered activities of 0.19–0.27 MBq (mice, 0.017 µg of peptide), 97–113 MBq (pigs, 9 µg of peptide), and 850–1086 MBq (patients, 55–106 µg of peptide) were included. For pigs and patients, kidney protection was applied.
After administration of ^177Lu-OPS201, blood samples were taken up to 72 h for mice, up to 300 h for pigs, and up to 23 h for patients in order to measure the blood radioactivity contents by using the same well-type gamma counter (Packard Instruments). […] In order to convert the raw count values to blood uptake values per mL human blood in each time point, human blood data were quantified (in Bq/mL) retrospectively by using the same calibration factor as for the mouse study. […]
To quantify the amount of activity, the average percentage values corresponding to the injected radioactivity (A%) per organ as a function of time were calculated for the liver, right kidney, left kidney, and blood for each species via a manual VOI analysis (for pigs and patients) and via gamma counter (for mice). […]

in vivo = experiment: in vivo; set-up: species or system Danish Landrace pigs; conditions: both sexes, Danish Landrace, pig, total radioactivity
Method: as §1
After administration of ^177Lu-OPS201, blood samples were taken up to 72 h for mice, up to 300 h for pigs, and up to 23 h for patients in order to measure the blood radioactivity contents by using the same well-type gamma counter (Packard Instruments). The human blood data were, originally, provided as relative values, normalized to the first blood sample immediately taken after injection. In order to convert the raw count values to blood uptake values per mL human blood in each time point, human blood data were quantified (in Bq/mL) retrospectively by using the same calibration factor as for the mouse study.
After injection, multiple whole body (WB) planar images and SPECT/CT scans were acquired at 0.5, 2, 3, 4, 50, 100, 150, and 250 h to quantify the uptake in the kidneys and liver. […]

C[C@@H](O)[C@H](NC(=O)[C@@H]1CSSC[C@H](NC(=O)[C@@H](Cc2ccccc2)NC(=O)CN2CCN(CC(=O)[O-])CCN(CC(=O)[O-])CCN(CC(=O)[O-])CC2)C(=O)N[C@@H](Cc2ccc(O)cc2)C(=O)N[C@H](Cc2c[nH]c3ccccc23)C(=O)N[C@@H](CCCCN)C(=O)N[C@@H]([C@@H](C)O)C(=O)N1)C(=O)O.[177Lu+3] [177Lu-octreotate, DOTA-[Tyr3]octreotate]
half-life of late phase, blood [1]: 43 h | mean effective half-life of first phase, blood [1]: 1.6 h

C[C@@H](O)[C@@H]1NC(=O)[C@H](CCCCN)NC(=O)[C@@H](Cc2ccc(NC(N)=O)cc2)NC(=O)[C@H](Cc2ccc(NC(=O)[C@@H]3CC(=O)NC(=O)N3)cc2)NC(=O)[C@H](NC(=O)[C@H](Cc2ccc(Cl)cc2)NC(=O)CN2CCN(CC(=O)O)CCN(CC(=O)O)CCN(CC(=O)O)CC2)CSSC[C@@H](C(=O)N[C@H](Cc2ccc(O)cc2)C(N)=O)NC1=O [177Lu-OPS201, metal not drawn] ({DOTA}-[Phe(4-Cl)][dC][Phe(4-NH2)](Dihydroorotyl(S))[dPhe(4-NHCONH2)]KTC[dY]-NH2; disulfide 2-7)
tissue uptake dose at 10 min (clinical): < 5 %ID | tissue uptake dose at 10 min (in vivo): < 5 %ID

— article PMC6348830, “In Vivo Biokinetics of ^177Lu-OPS201 in Mice and Pigs as a Model for Predicting Human Dosimetry” (Contrast Media & Molecular Imaging, 2019)
